# Results as given in publication PMC2853223 (ACS chemical biology, 2009).
# Assay: SPR affinity of His-tagged PikAIII ACPdd for nickel-NTA sensor chip
# Format: binding
# Details: BIAcore 3000, nickel-loaded NTA sensor chip, HBS-P+E pH 7.4
molecule,measurement,value
"His-tagged PikAIII ACPdd: C-terminal (ACP-side) docking domain of PikAIII, pikromycin PKS (protein, left off: His6, N-terminal, kept) LAPAEPAPTDWEGRVRRALAELPLDRLRDAGVLDTVLRLTGIEPEPGSGGSDGGAADPGAEPEASIDDLDAEALIRMALGPRNT",Kd,4 ± 0.04 nM
